Source: article PMC3068996

Target: recombinant GST-tagged TgNF3 (Toxoplasma gondii nuclear factor 3) (T. gondii)
Test: pull-down

Question: Which percent of input bound does the source give for “purified core histones from HeLa cells (H3, H4, H2A/H2B) (from UniProt P68431 1-136; P62805 1-103; P0C0S8 1-130; P62807 1-126) (complex)” here?
Answer: 25%
